{
  "source": "patent US20110300138A1",
  "about": "(published 2011)",
  "key": {"[1]": {"biological_target": "human TSH receptor (full length) coated on ELISA plate wells (human) (UniProt P16473)", "experiment": "TSH-biotin binding inhibition ELISA, TSHR coated wells; 0.001 µg/mL in assay buffer + 100 µg/mL 5B3 IgG"}, "[2]": {"biological_target": "TSH receptor (TSHR), full length human, coated on tubes (human) (UniProt P16473)", "experiment": "inhibition of 125I-TSH binding to TSHR coated tubes; 100 µg/mL, diluted in assay buffer"}, "[3]": {"biological_target": "TSHR (thyroid stimulating hormone receptor), full length human (human) (UniProt P16473)", "experiment": "negative control; competitor ^125I-K1-70 IgG, TSHR coated tubes; 1 µg/mL in assay buffer"}, "[4]": {"biological_target": "TSH receptor (TSHR) coated on tubes (human) (UniProt P16473)", "experiment": "inhibition of 125I-K1-70 IgG binding to TSHR coated tubes; negative control 0.1 µg/mL in HBD serum pool"}, "[5]": {"biological_target": "TSH receptor (TSHR) coated on tubes (human) (UniProt P16473)", "experiment": "inhibition of 125I-K1-70 IgG binding to TSHR coated tubes; negative control 0.001 µg/mL in HBD serum pool"}, "[6]": {"biological_target": "TSH receptor (TSHR), full length human, coated on tubes (human) (UniProt P16473)", "experiment": "inhibition of 125I-TSH binding to TSHR coated tubes; 0.01 µg/mL, diluted in assay buffer; mean of duplicates"}, "[7]": {"biological_target": "TSHR (full length) coated on tubes (human) (UniProt P16473)", "experiment": "inhibition of 125I-K1-18 Fab (competitor) binding to TSHR coated tubes; negative control 10 µg/mL in HBD serum"}, "[8]": {"biological_target": "TSHR (full length) coated on tubes (human) (UniProt P16473)", "experiment": "inhibition of 125I-K1-18 Fab (competitor) binding to TSHR coated tubes; negative control 0.01 µg/mL in assay buffer"}, "[9]": {"biological_target": "human TSH receptor (full length) coated on ELISA plate wells (human) (UniProt P16473)", "experiment": "TSH-biotin binding inhibition ELISA, TSHR coated wells; 100 µg/mL in assay buffer + 100 µg/mL 5B3 IgG; negative control MAb"}, "[10]": {"biological_target": "TSH receptor (TSHR) coated on tubes (human) (UniProt P16473)", "experiment": "inhibition of 125I-K1-70 IgG binding to TSHR coated tubes; negative control 1 µg/mL in HBD serum pool; duplicate determination"}, "[11]": {"biological_target": "TSH receptor (TSHR), full length human, coated on tubes (human) (UniProt P16473)", "experiment": "inhibition of 125I-K1-18 IgG binding to TSHR coated tubes; competitor 125I-K1-18 IgG; negative control sample at 0.1 µg/mL in assay buffer"}, "[12]": {"biological_target": "TSH receptor (full length human TSHR) (human) (UniProt P16473)", "experiment": "competition ELISA: inhibition of M22 Fab-peroxidase (competitor) binding to TSHR coated wells; negative control at 1 µg/mL diluted in HBD serum pool"}, "[13]": {"biological_target": "TSHR with Phe134 mutated to Ala, expressed in CHO cells (human) (UniProt P16473)", "experiment": "cell-based or functional assay"}, "[14]": {"biological_target": "wild type TSHR expressed in CHO cells (human) (UniProt P16473)", "experiment": "cell-based or functional assay"}, "[15]": {"biological_target": "thyroid stimulating hormone receptor (TSHR), full length human TSHR (human) (UniProt P16473)", "experiment": "TSH-biotin competition ELISA, TSHR coated wells; 0.1 µg/mL in assay buffer"}, "[16]": {"biological_target": "TSHR (full length) coated on tubes (human) (UniProt P16473)", "experiment": "inhibition of 125I-K1-18 Fab (competitor) binding to TSHR coated tubes; test sample 1 µg/mL in HBD serum"}, "[17]": {"biological_target": "TSHR (full length) coated on tubes (human) (UniProt P16473)", "experiment": "inhibition of 125I-K1-18 Fab (competitor) binding to TSHR coated tubes; test sample 0.01 µg/mL in HBD serum"}, "[18]": {"biological_target": "TSH receptor (TSHR), full length human, coated on tubes (human) (UniProt P16473)", "experiment": "inhibition of 125I-K1-18 IgG binding to TSHR coated tubes; competitor 125I-K1-18 IgG; sample at 0.1 µg/mL in assay buffer"}, "[19]": {"biological_target": "TSH receptor (full length human TSHR) (human) (UniProt P16473)", "experiment": "competition ELISA: inhibition of M22 Fab-peroxidase (competitor) binding to TSHR coated wells; test sample at 0.01 µg/mL diluted in assay buffer"}, "[20]": {"biological_target": "human thyroid stimulating hormone receptor (TSHR), full length (human) (UniProt P16473)", "experiment": "125I-K1-18 Fab competition, TSHR coated tubes; 1 µg/mL in HBD"}, "[21]": {"biological_target": "human TSH receptor (full length) coated on ELISA plate wells (human) (UniProt P16473)", "experiment": "TSH-biotin binding inhibition ELISA, TSHR coated wells; 10 µg/mL in assay buffer"}, "[22]": {"biological_target": "human TSH receptor (full length) coated on ELISA plate wells (human) (UniProt P16473)", "experiment": "TSH-biotin binding inhibition ELISA, TSHR coated wells; 100 µg/mL in assay buffer"}, "[23]": {"biological_target": "TSH receptor (TSHR), full length human, coated on tubes (human) (UniProt P16473)", "experiment": "inhibition of 125I-TSH binding to TSHR coated tubes; 0.1 µg/mL, diluted in assay buffer"}, "[24]": {"biological_target": "TSH receptor (TSHR) coated on tubes (human) (UniProt P16473)", "experiment": "inhibition of 125I-K1-70 IgG binding to TSHR coated tubes; sample 0.01 µg/mL in HBD serum pool"}, "[25]": {"biological_target": "thyroid stimulating hormone receptor (full length human TSHR) (human) (UniProt P16473)", "experiment": "ELISA, inhibition of TSH-biotin binding to TSHR coated wells; 1 µg/mL, diluted in HBD serum pool"}, "[26]": {"biological_target": "TSH receptor (TSHR), full length human, coated on tubes (human) (UniProt P16473)", "experiment": "inhibition of 125I-K1-18 IgG (competitor) binding to TSHR coated tubes; test sample at 100 µg/mL in assay buffer"}, "[27]": {"biological_target": "TSH receptor (TSHR), full length human, coated on tubes (human) (UniProt P16473)", "experiment": "inhibition of 125I-K1-18 IgG (competitor) binding to TSHR coated tubes; test sample at 100 µg/mL in HBD serum pool"}},
  "data": [
    {"molecule": "M22 IgG (antibody)", "values": [
      {"measurement": "% inhibition of TSH-biotin binding", "setting": "[1]", "value": -7.7, "unit": "%"}
    ]},
    {"molecule": "5B3 IgG (antibody)", "values": [
      {"measurement": "Inhibition of binding (%)", "setting": "[2]", "value": 22.4, "unit": "%"},
      {"measurement": "Inhibition of binding (%)", "setting": "[3]", "value": 4.2, "unit": "%"},
      {"measurement": "Inhibition of binding (%)", "setting": "[4]", "value": 9.4, "unit": "%"},
      {"measurement": "Inhibition of binding (%)", "setting": "[5]", "value": 3.7, "unit": "%"},
      {"measurement": "Inhibition of binding (%)", "setting": "[6]", "value": -5.8, "unit": "%"},
      {"measurement": "Inhibition of binding (%)", "setting": "[7]", "value": -0.1, "unit": "%"},
      {"measurement": "Inhibition of binding (%)", "setting": "[8]", "value": 0, "unit": "%"},
      {"measurement": "% inhibition of TSH-biotin binding", "setting": "[9]", "value": 1.1, "unit": "%"},
      {"measurement": "Inhibition of binding (%)", "setting": "[10]", "value": 0, "unit": "%"},
      {"measurement": "Inhibition of binding (%)", "setting": "[11]", "value": -4.8, "unit": "%"},
      {"measurement": "Inhibition of binding (%)", "setting": "[12]", "value": 9.7, "unit": "%"}
    ]},
    {"molecule": "TSH (ligand)", "values": [
      {"measurement": "% inhibition of TSH stimulation; TSH (2)", "setting": "[13]", "value": 9, "unit": "%"},
      {"measurement": "Cyclic AMP produced; TSH 3 ng/mL", "setting": "[13]", "value": 111, "unit": "pmol/mL"},
      {"measurement": "Cyclic AMP produced; TSH (2)", "setting": "[13]", "value": 102, "unit": "pmol/mL"},
      {"measurement": "Mutated/wild type (%) of cyclic AMP produced; TSH 3 ng/mL", "setting": "[13]", "value": 103, "unit": "%"},
      {"measurement": "Mutated/wild type (%) of cyclic AMP produced; TSH (2)", "setting": "[13]", "value": 71, "unit": "%"},
      {"measurement": "Cyclic AMP produced; TSH 3 ng/mL", "setting": "[14]", "value": 108, "unit": "pmol/mL"},
      {"measurement": "Cyclic AMP produced; TSH (2)", "setting": "[14]", "value": 142, "unit": "pmol/mL"}
    ]},
    {"molecule": "9D33 IgG (antibody)", "values": [
      {"measurement": "Inhibition of binding (%)", "setting": "[15]", "value": 59.7, "unit": "%"},
      {"measurement": "Inhibition of binding (%)", "setting": "[16]", "value": 64.8, "unit": "%"},
      {"measurement": "Inhibition of binding (%)", "setting": "[17]", "value": 2.3, "unit": "%"},
      {"measurement": "Inhibition of binding (%)", "setting": "[18]", "value": 54.8, "unit": "%"},
      {"measurement": "Inhibition of binding (%)", "setting": "[19]", "value": 14.8, "unit": "%"}
    ]},
    {"molecule": "5C9 IgG (antibody, from another filing, V domains shown) VH: EVQLVESGGGLIQPGGSLRLSCAASGFTVSSNYMSWVRQAPGKGLEWVSVTYSGGSTSYADSVKGRFTISRDNSKNTLYLQMNSLRAEDTAVYYCARGGRYCSSISCYARSGCDYWGQGTLVTVSS VL: AIQMTQSPSSLSASVGDRVTITCRASQSISNYLNWYQQKPGKAPKLLIYAASSLQSGVPSRFSGSGSGTDFTLTISSLQPEDFATYYCQQSYSSPSTTFGQGTKLEIK", "values": [
      {"measurement": "Inhibition of binding (%)", "setting": "[20]", "value": 23.2, "unit": "%"},
      {"measurement": "% inhibition of TSH-biotin binding", "setting": "[21]", "value": 58.2, "unit": "%"},
      {"measurement": "% inhibition of TSH-biotin binding", "setting": "[22]", "value": 91.2, "unit": "%"},
      {"measurement": "Inhibition of binding (%)", "setting": "[23]", "value": 24.4, "unit": "%"},
      {"measurement": "Inhibition of binding (%)", "setting": "[24]", "value": 2.8, "unit": "%"},
      {"measurement": "Inhibition of binding (%)", "setting": "[25]", "value": 28.5, "unit": "%"},
      {"measurement": "Inhibition of binding (%)", "setting": "[26]", "value": 91.3, "unit": "%"},
      {"measurement": "Inhibition of binding (%)", "setting": "[27]", "value": 57.7, "unit": "%"}
    ]}
  ]
}
